According to doi:10.1101/2021.06.03.446569 (bioRxiv, 2021):
Like-named read-outs stand apart in the source and are kept apart here. Ends that are not written are not given here. * marks the point of attachment. FITC = O=C1OC2(c3ccc(O)cc3Oc3cc(O)ccc32)c2ccc(NC(=S)*)cc21

Columns and labels:
Assay in all cases: fluorescence polarisation
[1] = target: CBP KIX domain (CREBBP KIX domain) (human) (UniProt Q92793)
[2] = target: Human P300 KIX domain (EP300 KIX domain) (human) (UniProt Q09472)
[3] = target: CBP KIX domain (CREBBP KIX domain) (human) (UniProt Q92793); remark: listed apart in the source
[4] = target: Human P300 KIX domain (EP300 KIX domain) (human) (UniProt Q09472); remark: listed apart in the source
[5] = target: Human P300 KIX domain (EP300 KIX domain) (human, UniProt Q09472 565-652)
[6] = target: CBP KIX domain (CREBBP KIX domain) (human, UniProt Q92793 585-672)
Chain of CBP KIX domain (CREBBP KIX domain) (Q92793 585-672): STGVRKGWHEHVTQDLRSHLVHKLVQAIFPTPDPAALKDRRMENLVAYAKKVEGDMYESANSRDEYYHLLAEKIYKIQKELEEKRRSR

Chain of CBP KIX domain (CREBBP KIX domain) (human) (Q92793 585-672): as above
Chain of Human P300 KIX domain (EP300 KIX domain) (Q09472 565-652): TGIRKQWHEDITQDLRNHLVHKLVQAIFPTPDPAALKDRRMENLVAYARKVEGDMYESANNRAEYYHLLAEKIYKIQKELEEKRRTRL
Chain of Human P300 KIX domain (EP300 KIX domain) (human) (Q09472 565-652): as above

Molecule: MLL28MYB30 (M/M) fusion peptide, purified
- IC50 [1]: 22 µM
- IC50 [2]: 8.5 µM
- IC50 [3]: 23 µM
- IC50 [4]: 8.3 µM

Molecule: {FITC}-KEKRIKELELLLMSTENELKGQQAL [FITC-labelled MYB peptide (MYB25)]
- Kd [5]: 3.8 ± 0.2 µM

Molecule: SDDGNILPSDIMDFVLKNTPSMQAL (also: rhodamine label, position not given here) [Rhodamine-labelled MLL peptide (MLL25)]
- Kd [5]: 40 ± 14 µM
- Kd [6]: 94 ± 11 µM
